This is an account of results in patent US20260258141A1 (BIOCYTOGEN PHARMACEUTICALS BEIJING, published 2026).

Where a chain is given by its changes, count along the chain named.

To fix the notation:
B1: anti-IGF1R antibody 12A4 (antibody, V domains shown)
VH: EVQLVQSGGGEIRPGGSLRLSCAASGFTFADYGMSWVRQAPGEGLEWVSEIDWTGGSKLYADSVKGRFTISRDNAKNSLFLQMNSLRAEDTALYYCVRDRGAVSPKYYYYGMDVWGQGTTVTVSS
VL: EIVLTQSPSSLSASVGDRVTITCRASQGIRNDLGWYQQKPGKAPKRLIYAASRLQSGVPSRFSGSGSGTDFTLTISSLQPEDFATYYCLQHNSYPYTFGQGTKLEIK
B2: anti-IGF1R antibody 12D1 (antibody, human IgG1, V domains shown)
VH: QVQLVESGGGVVRPGGSLRLSCAASGFTFDDYGMSWVRQVPGKGLEWVSGINWNGGSTDYADSVKGRFTISREKAKNSLYLQMNSLRAEDTALYYCVRDRGAVTRRYYYYGMDVWGQGTTVTVSS
VL: B1 VL with E1D, V3Q, L4M, G28D, Q38L, D70E
B3: anti-IGF1R antibody 10G1 (antibody, human IgG1, V domains shown)
VH: QVQLVESGGGLVKPGGSLRLSCAASEFTFSDYYMSWIRQSPGKGLEWVSYISNSGSFTNYADSVKGRFTISRDNAKNSLYLQMNSLRAEDSAIYYCVRDQAPVTSKYYYYGMDVWGQGTTVTVSS
VL: B1 VL with L33F, G34A, S56R, D70E
B4: anti-IGF1R antibody 10D1 (antibody, human IgG1, V domains shown)
VH: B2 VH with V5Q, E6Q, D30A, E73D, K74N, N77H, L93F, V97A, T104S, Q117L
VL: B1 VL with E1A, V3Q, G28D, Q38L, R61G, D70E

The target in the first assay is T1, His-tagged human IGF1R protein (ACRO Biosystems Inc., Cat #: IGR-H5229) (human, UniProt P08069 31-932).
T1 construct: Bought protein; also called hIGF1R-His; not shown: His tag
T1 sequence (P08069 31-932): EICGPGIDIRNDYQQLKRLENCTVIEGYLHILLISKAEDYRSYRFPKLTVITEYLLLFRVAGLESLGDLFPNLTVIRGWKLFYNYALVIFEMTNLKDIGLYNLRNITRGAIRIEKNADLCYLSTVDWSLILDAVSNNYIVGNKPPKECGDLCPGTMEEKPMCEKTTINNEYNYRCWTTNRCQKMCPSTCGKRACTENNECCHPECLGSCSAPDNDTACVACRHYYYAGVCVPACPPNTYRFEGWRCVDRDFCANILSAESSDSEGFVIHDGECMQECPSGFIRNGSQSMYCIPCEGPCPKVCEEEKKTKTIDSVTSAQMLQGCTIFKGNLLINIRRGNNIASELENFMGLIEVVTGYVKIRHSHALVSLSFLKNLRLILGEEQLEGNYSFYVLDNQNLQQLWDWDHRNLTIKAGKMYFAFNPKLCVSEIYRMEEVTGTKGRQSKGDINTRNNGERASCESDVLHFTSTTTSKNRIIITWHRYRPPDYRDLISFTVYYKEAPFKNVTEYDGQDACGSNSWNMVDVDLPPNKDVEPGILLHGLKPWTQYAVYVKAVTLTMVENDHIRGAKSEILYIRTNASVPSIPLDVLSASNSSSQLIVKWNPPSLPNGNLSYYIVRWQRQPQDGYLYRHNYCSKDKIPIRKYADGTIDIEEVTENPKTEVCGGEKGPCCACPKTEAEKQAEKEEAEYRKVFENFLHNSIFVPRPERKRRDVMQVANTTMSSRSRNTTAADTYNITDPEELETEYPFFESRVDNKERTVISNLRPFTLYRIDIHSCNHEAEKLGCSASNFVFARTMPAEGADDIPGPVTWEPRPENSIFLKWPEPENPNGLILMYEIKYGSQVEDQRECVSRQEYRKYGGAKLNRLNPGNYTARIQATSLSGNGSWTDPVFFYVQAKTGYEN
The assay is described as follows: SPR (Biacore 8K) on captured hIGF1R-His, binder injected second (Analyte 2); competitor injected first (Analyte 1): 10D1. Here is the method:
(§1) Epitope binding assays were performed using Biacore™ 8K biosensor to determine whether two anti-IGF1R antibodies target the same or overlapping epitopes. 1×HBS-EP+ buffer (10 mM 4-(2-hydroxyethyl)-1-piperazineethanesulfonic acid (HEPES), 150 mM NaCl, 3 mM ethylenediaminetetraacetic acid (EDTA) and 0.05% P20, pH7.4) diluted from HBS-EP+buffer (10×) was used as the running buffer throughout the experiment. About 50 RU of hIGF1R-His was captured at a flow rate of 10 μL/min, and 200 nM of the tested antibody (Analyte 1) was injected at a flow rate of 30 uL/min to bind the ligand. Another comparison antibody (Analyte 2) was injected under the same conditions to determine whether the binding of different antibodies interfered with each other. The binding time was 180 s for each antibody.
(§2) The binding value of each antibody was obtained using Biacore Insight Evaluation (Version: 2.0.15.12933). To quantify the interference of one antibody binding to another, a binding ratio was calculated to compare each pair of antibodies. The binding ratio is defined as the binding value of the second antibody (Analyte 2) divided by the binding value of the first antibody (Analyte 1). The threshold to determine the block or non-block is 0.3.
Background: SPR reads the build-up and loss of mass on a sensor chip optically.
Turning to B1, the “binding ratio (Analyte 2 / Analyte 1)” value is -0.05.
On the same count and under the same terms, as for B2, the figure is -0.04.
Regarding B3, the “binding ratio (Analyte 2 / Analyte 1)” value was -0.04.
With B4, the “binding ratio (Analyte 2 / Analyte 1)” value is -0.02.

The next assay deals with T1, His-tagged human IGF1R protein (ACRO …). Description: SPR (Biacore 8K) on captured hIGF1R-His, binder injected second (Analyte 2); competitor injected first (Analyte 1): Teprotumumab analog. Here is the method: as §1, §2
As to B1, the “binding ratio (Analyte 2 / Analyte 1)” value was found to be 0.01.
On the same count and under the same terms, as for B2, the figure is 0.01; as for B3, -0.03.
On to B4, for which the “binding ratio (Analyte 2 / Analyte 1)” value was determined as 0.03.

The target is the same in a further assay. The assay is described as follows: blocking ELISA on coated hIGF1R-His; blocked ligand: biotinylated human IGF-I. On the procedure: Blocking assays were performed to determine whether the anti-IGF1R antibodies can block the binding between IGF1R and its ligand IGF-1 and IGF-2. Specifically, the microwell plates were coated with 100 μl/well of 5 μg/mL hIGF1R-His in pH 9.6 carbonate buffer, overnight at 4° C. Plates were blocked with at 200 μl/well of 1% bovine serum albumin and incubated at 37° C. for 2 hours. Serially diluted anti-IGF1R antibodies (0.005-10 μg/mL in 3-fold serial dilution plus buffer blank) were added to the plates at 100 μL/well. After a 1.5-hour incubation, Biotinylated Human IGF-I Protein (Acro Biosystems, Cat #: IG1-H82F7) or Biotinylated Human IGF-I Protein was replaced with Biotinylated Human IGF-II Protein (Acro Biosystems, Cat #: IG2-H82Q6) were added to the plates at 100 μL/well. After a 1.5-hour incubation at 37° C., HRP Streptavidin (Biolegend, Cat #: 405210) at 1:3000 dilution was added to the plates at 100 μL/well and incubated for 1 hour. Plates were washed 5 times and 100 μL of TMB was added to each well, and incubated for 10 minutes. 100 uL of 1M Phosphoric Acid was then added to each well and ELISA plates were read at 450/570 nm wavelength. A fitting curve was obtained using Log (antibody concentration (M)) as the X-axis and […] as the Y-axis.
(In general: In an ELISA, binding on a coated surface is turned into a signal by an enzyme label.)
For B1, inhibition was half-maximal at 2 nM (IC50) and the “Max inhibition (%) (10 µg/mL)” value came to 50%.
For B2 the same measures were 2.2 nM and 55%.
Turning to B3, it took 1.6 nM to reach half-maximal inhibition (IC50) and the “Max inhibition (%) (10 µg/mL)” value was 43%.
For B4 the same measures were 1.3 nM and 47%.

The next assay has the same target. The assay is described as follows: SPR (Biacore 8K), antibody captured on Protein A chip, antigen as analyte, 1:1 model. Here is the method:
The affinity of the anti-IGF1R antibodies to His-tagged human IGF1R protein (hIGF1R-His, ACRO Biosystems Inc., Cat #: IGR-H5229) and His-tagged cynomolgus monkey IGF1R protein (cIGF1R-His, ACRO Biosystems Inc., Cat #: IGR-C5225) were measured using surface plasmon resonance (SPR) using Biacore™ (Biacore, Inc., Piscataway N.J.) 8K biosensor equipped with pre-immobilized Protein A sensor chips.
Purified anti-IGF1R antibodies were captured on the Protein A chip (Series S Sensor Chip Protein A) for the detection. 1 μg/mL or 10 μg/mL purified anti-IGF1R antibodies was loaded at 10 μL/min to bind to a gradient concentration of recombinant hIGF1R-His or cIGF1R-His (400 nM, 200 nM, 100 nM, 50 nM, 25 nM, 12.5 nM, 6.25 nM, 3.125 nM). The flow rate was 30 μL/min, the binding and dissociation time were set to 180 s and 800 s or 1200 s, respectively. The chip was regenerated after the last injection of each titration with a glycine solution (pH 2.0) at 30 μL/min for 30 seconds.
Turning to B1, the Kd – broadly, the constant that tells how readily two partners part at equilibrium – stood at 0.214 nM; the koff (as a rule, the rate constant with which the complex falls apart) stood at 5.69e-06 s⁻¹; the kon – broadly, a measure of how fast the partners come together – is 26600 M⁻¹ s⁻¹.
For B2 the same measures were 1.72 nM, 1.05e-05 s⁻¹ and 6120 M⁻¹ s⁻¹.
For B3 the same measures were 3.99 nM, 0.000162 s⁻¹ and 40700 M⁻¹ s⁻¹.
With B4, the affinity, expressed as Kd, was 1.63 nM; the koff was determined as 1.26e-05 s⁻¹; the on-rate (kon) amounted to 7750 M⁻¹ s⁻¹.

The target of the next assay is T2, human insulin receptor INSR on cells (human, UniProt P06213 28-1382).
T2 construct: Expressed on CHO-S cells; also called hINSR; CHO-S-hINSR cells
T2 sequence (P06213 other isoform, or with tags, fused parts or gaps limits assumed): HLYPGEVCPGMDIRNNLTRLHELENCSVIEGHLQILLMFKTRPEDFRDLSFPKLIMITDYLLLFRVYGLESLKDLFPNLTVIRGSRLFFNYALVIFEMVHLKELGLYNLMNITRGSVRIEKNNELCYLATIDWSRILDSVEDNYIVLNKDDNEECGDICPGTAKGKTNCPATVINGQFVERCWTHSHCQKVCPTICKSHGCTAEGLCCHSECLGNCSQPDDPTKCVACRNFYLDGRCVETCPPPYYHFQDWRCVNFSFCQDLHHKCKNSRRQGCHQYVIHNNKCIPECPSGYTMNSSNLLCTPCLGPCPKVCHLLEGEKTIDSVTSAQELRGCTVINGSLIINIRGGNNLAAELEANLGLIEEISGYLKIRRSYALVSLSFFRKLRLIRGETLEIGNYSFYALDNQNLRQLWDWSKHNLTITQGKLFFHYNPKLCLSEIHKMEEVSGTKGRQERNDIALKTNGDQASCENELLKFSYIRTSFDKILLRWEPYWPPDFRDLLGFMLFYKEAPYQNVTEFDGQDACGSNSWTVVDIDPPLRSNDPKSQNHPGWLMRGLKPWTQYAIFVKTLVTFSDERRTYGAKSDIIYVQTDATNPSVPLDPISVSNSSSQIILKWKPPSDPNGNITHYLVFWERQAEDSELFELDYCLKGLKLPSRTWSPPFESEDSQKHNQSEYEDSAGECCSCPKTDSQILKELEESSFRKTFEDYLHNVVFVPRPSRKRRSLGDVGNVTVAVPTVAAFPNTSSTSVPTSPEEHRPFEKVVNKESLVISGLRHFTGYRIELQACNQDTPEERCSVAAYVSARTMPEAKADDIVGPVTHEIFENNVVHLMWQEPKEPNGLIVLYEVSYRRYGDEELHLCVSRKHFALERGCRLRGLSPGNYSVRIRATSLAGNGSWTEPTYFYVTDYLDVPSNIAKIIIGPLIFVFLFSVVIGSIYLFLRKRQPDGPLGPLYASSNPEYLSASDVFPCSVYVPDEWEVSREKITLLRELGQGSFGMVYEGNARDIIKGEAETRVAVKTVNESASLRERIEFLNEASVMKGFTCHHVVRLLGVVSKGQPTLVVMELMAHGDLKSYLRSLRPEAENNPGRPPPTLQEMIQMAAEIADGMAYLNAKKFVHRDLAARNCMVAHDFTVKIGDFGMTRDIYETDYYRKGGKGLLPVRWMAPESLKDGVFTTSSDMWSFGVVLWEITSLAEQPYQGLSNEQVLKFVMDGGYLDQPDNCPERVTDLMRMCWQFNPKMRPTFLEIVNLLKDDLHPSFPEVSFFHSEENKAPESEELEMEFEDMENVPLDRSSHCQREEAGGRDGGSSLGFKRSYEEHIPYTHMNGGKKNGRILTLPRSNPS
Description: flow cytometry on CHO-S-hINSR cells. On the procedure: (§3) INSR (insulin receptor) and IGF1R are both members of the superfamily of receptor tyrosine kinases (RTKs). The binding activity of anti-IGF1R antibodies to human IGF1R, human INSR and monkey IGF1R was verified by flow cytometry. Briefly, CHO-S-hIGF1R cells (expressing human IGF1R (SEQ ID NO: 45), CHO-S-fasIGF1R cells (expressing cynomolgus monkey IGF1R (SEQ ID NO: 46) and CHO-S-hINSR (expressing SEQ ID NO: 47) were plated in a 96-well plate at a density of 2×10⁵ cells/well respectively. Purified anti-IGF1R antibody with a concentration of 20 μg/mL was added to each well and was incubated at 4° C. for 30 minutes. Then, after one wash with PBS, the cells were incubated with the secondary antibody Alexa Fluor® 647 anti-human IgG Fcγ (Jackson ImmunoResearch Laboratories, Inc., Cat #: 109-606-170) at 4° C. for 15 minutes before flow cytometry analysis. Human IgG1 was used as ISO control.
On to B1, for which the binding result is listed as “no binding (tested: 20 µg/mL)”.
Still for that read-out and setting: as for B2, the entry is “no binding (tested: 20 µg/mL)”; as for B3, “no binding (tested: 20 µg/mL)”.
For the molecule B4, the binding result is reported as “no binding (tested: 20 µg/mL)”.

The target in a further assay is T2, human insulin receptor INSR on cells. Description: flow cytometry on CHO-S-hINSR cells, antibody 20 µg/mL. On the procedure: as §3
In general terms: In flow cytometry, cells or beads pass a laser one at a time.
Consider B1, for which the “Percentage of positive cells” value came to 0.4%.
With B2, the “Percentage of positive cells” value turned out to be 0.5%.
Consider B3, for which the “Percentage of positive cells” value is 0.7%.
The same measure, in the same setting: as for B4, the figure is 1.5%.

For another assay, the target named is T1, His-tagged human IGF1R protein (ACRO …). The assay is described as follows: SPR (Biacore 8K) on captured hIGF1R-His, binder injected second (Analyte 2); competitor injected first (Analyte 1): 12D1. On the procedure: as §1, §2
For the molecule B1, the “binding ratio (Analyte 2 / Analyte 1)” value was -0.02.
As for B2, the “binding ratio (Analyte 2 / Analyte 1)” value was -0.01.
Still for that read-out and setting: as for B3, the figure is -0.02; as for B4, 0.02.
